Results on 30 molecules are retold here after patent US20210388087A1 (Chugai, published 2021).

The labels stand for the following.
B1: dBBDu217 (antibody, human IgG1, V domains shown)
VH: QVQLVESGGGLVQPGRSLRLSCAASGFTFSNAWMHWVRQAPGKGLEWVAQIKDRQQGYATYYAPSVKGRFTISRDDSKNSIYLQMNSLKTEDTAVYYCRFVHYHLAGYGYYGVDAWGQGTTVTVSS
VL: DIVMTQSPLSLPVTPGEPASISCRSSQSLVHSNRNTYLHWYQQKPGQAPRLLIYKVSNRFSGVPDRFSGSGSGTDFTLKISRVEAEDVGVYYCGQGTQVPYTFGQGTKLEIK
notes: human IgG1; GLS3000 light chain
B2: dBBDu183 (antibody, human IgG1, V domains shown)
VH: QVQLVESGGGLVQPGRSLRLSCAASGFTFSNAWMHWVRQAPGKGLEWVAQIKDKGNAYAAYYAPSVKGRFTISRDDSKNSIYLQMNSLKTEDTAVYYCHYVHYASASTVLPAFGVDAWGQGTTVTVSS
VL: B1 VL
notes: as for B1
B3: dBBDu139 (antibody, human IgG1, V domains shown)
VH: QVQLVESGGGLVQPGRSLRLSCAASGFTFSNAWMHWVRQAPGKGLEWVAQIKDRGNAYNAYYAESVKGRFTISRDDSKNSIYLQMNSLKTEDTAVYYCRFVHYRHPLLHIQYGVDAWGQGTTVTVSS
VL: B1 VL
notes: as for B1
B4: dBBDu197 (antibody, human IgG1, V domains shown)
VH: B2 VH with K54R, G55S
VL: B1 VL
notes: as for B1
B5: dBBDu174 (antibody, human IgG1, V domains shown)
VH: QVQLVESGGGLVQPGRSLRLSCAASGFTFSSAWMHWVRQAPGKGLEWVAQIKDRASAYNAYYAESVKGRFTISRDDSKNSIYLQMNSLKTEDTAVYYCRYVHYPSYVSFLPYYGVDAWGQGTTVTVSS
VL: B1 VL
notes: as for B1
B6: dBBDu179 (antibody, human IgG1, V domains shown)
VH: B2 VH with K54R, G55S, A57Q, A60T
VL: B1 VL
notes: as for B1
B7: dBBDu186 (antibody, human IgG1, V domains shown)
VH: B2 VH with K54R, G55S, A57Q, A60T, S105Q
VL: B1 VL
notes: as for B1
B8: dBBDu205 (antibody, human IgG1, V domains shown)
VH: B2 VH with K54R, G55S, N56Q, A57L
VL: B1 VL
notes: as for B1
B9: dBBDu167 (antibody, human IgG1, V domains shown)
VH: B2 VH with A57L, S107G, T108G, V109G, A112G
VL: B1 VL
notes: as for B1
B10: dBBDu173 (antibody, human IgG1, V domains shown)
VH: B2 VH with A57L, S107G, T108G, V109G, P111S, F113Y
VL: B1 VL
notes: as for B1
B11: dBBDu204 (antibody, human IgG1, V domains shown)
VH: B2 VH with K54R, G55S, A57N, A60T, P64E
VL: B1 VL
notes: as for B1
B12: dBBDu202 (antibody, human IgG1, V domains shown)
VH: B2 VH with A104S, S105A
VL: B1 VL
notes: as for B1
B13: dBBDu193 (antibody, human IgG1, V domains shown)
VH: B2 VH with K54R, G55S, A57Q, A60T, A104S, S105A, V109L, A112S
VL: B1 VL
notes: as for B1
B14: dBBDu222 (antibody, human IgG1, V domains shown)
VH: QVQLVESGGGLVQPGRSLRLSCAASGFTISSAWMHWVRQAPGKGLEWVAQIKDRANGYAAYYAPSVKGRFTISRDDSKNSIYLQMNSLKTEDTAVYYCRYVHYATAYDGFYGFGVDAWGQGTTVTVSS
VL: B1 VL
notes: as for B1
B15: dBBDu196 (antibody, human IgG1, V domains shown)
VH: B2 VH with K54R, A59N, P64E
VL: B1 VL
notes: as for B1
B16: dBBDu199 (antibody, human IgG1, V domains shown)
VH: B2 VH with G55Q, N56S, A57G, A59N, A60T
VL: B1 VL
notes: as for B1
B17: dBBDu189 (antibody, human IgG1, V domains shown)
VH: B2 VH with V48I, K54R, G55S, A57Q, A60T, S105Q, T108S, V109L, A112S
VL: B1 VL
notes: as for B1
B18: dBBDu181 (antibody, human IgG1, V domains shown)
VH: B2 VH with V48I, K54R, A57N, A59N, A60N, S105T, V109L, P111G, F113Y
VL: B1 VL
notes: as for B1
B19: dBBDu125 (antibody, human IgG1, V domains shown)
VH: QVQLVESGGGLVQPGRSLRLSCAASGFTFSIAWMHWVRQAPGKGLEWVAQIKDKVNGYTAYYAESVKGRFTISRDDSKNSIYLQMNSLKTEDTAVYYCRYVHYAAYYDVLGYGGVDAWGQGTTVTVSS
VL: B1 VL
notes: human IgG1; GLS3000 light chain; also called DXDU01_3 #019; DXDU01_3_#019
B20: Du115/DUL008 (antibody, V domains shown)
VH: QVQLVESGGGLVQPGRSLRLSCAASGFTFSNAWMHWVRQAPGKGLEWVAQIKDKANSYNTYYAPSVKGRFTISRDDSKNSIYLQMNSLKTEDTAVYYCRYVHYGSSYGFLFAGYGVDAWGQGTTVTVSS
VL: DIVMTQSPLSLPVTPGEPASISCQSSEELLHANRKTYLHWYQQKPGQAPRLLIYKVQNRFSGVPDRFSGSGSGTDFTLKISRVEAEDVGVYYCAQGTATPFTFGQGTKLEIK
B21: dBBDu217 (antibody, V domains shown)
VH: B1 VH
VL: B1 VL
notes: Human IgG1; light chain GLS3000 (kappa)
B22: dBBDu139 (antibody, V domains shown)
VH: B3 VH
VL: B1 VL
notes: as for B21
B23: dBBDu174 (antibody, V domains shown)
VH: B5 VH
VL: B1 VL
notes: as for B21
B24: dBBDu222 (antibody, V domains shown)
VH: B14 VH
VL: B1 VL
notes: as for B21
B25: Dual-Fab H183/L072 variant with single light chain mutation K50Y (Kabat) (antibody, name in Kabat numbering, V domains shown)
VH: B2 VH
VL: B1 VL with R24Q, S25A, S28E, S32M, K55Y, S61P, G94A, Q98S, Y101F
notes: expressed as an antibody in Expi293 and purified on Protein A; also called dBBDu183H / dBBDu072L K50Y
B26: Dual-Fab H183/L072 variant with single light chain mutation F96Y (Kabat) (antibody, name in Kabat numbering, V domains shown)
VH: B2 VH
VL: B1 VL with R24Q, S25A, S28E, S32M, S61P, G94A, Q98S
notes: expressed as an antibody in Expi293 and purified on Protein A; also called dBBDu183H / dBBDu072L F96Y
B27: Dual-Fab H183/L072 variant with single light chain mutation G91Y (Kabat) (antibody, name in Kabat numbering, V domains shown)
VH: B2 VH
VL: B1 VL with R24Q, S25A, S28E, S32M, S61P, G94A, G96Y, Q98S, Y101F
notes: expressed as an antibody in Expi293 and purified on Protein A; also called dBBDu183H / dBBDu072L G91Y
B28: Dual-Fab H183/L072 variant with single light chain mutation F55Y (Kabat) (antibody, name in Kabat numbering, V domains shown)
VH: B2 VH
VL: B1 VL with R24Q, S25A, S28E, S32M, F60Y, S61P, G94A, Q98S, Y101F
notes: expressed as an antibody in Expi293 and purified on Protein A; also called dBBDu183H / dBBDu072L F55Y
B29: Dual-Fab H183/L072 variant with single light chain mutation A89Y (Kabat) (antibody, name in Kabat numbering, V domains shown)
VH: B2 VH
VL: B1 VL with R24Q, S25A, S28E, S32M, S61P, G94Y, Q98S, Y101F
notes: expressed as an antibody in Expi293 and purified on Protein A; also called dBBDu183H / dBBDu072L A89Y
B30: Dual-Fab H183/L072 variant with single light chain mutation N53Y (Kabat) (antibody, name in Kabat numbering, V domains shown)
VH: B2 VH
VL: B1 VL with R24Q, S25A, S28E, S32M, N58Y, S61P, G94A, Q98S, Y101F
notes: expressed as an antibody in Expi293 and purified on Protein A; also called dBBDu183H / dBBDu072L N53Y

Where a chain is given by its changes, count along the chain named. Numbers in names are those of the source.

The target in one assay is T1, biotin-labeled human CD137 fused to human IgG1 Fc fragment (human, UniProt Q07011 24-186, biotin-labeled).
T1 construct: also called human CD137-Fc; biotin-human CD137-Fc; not shown: human IgG1 Fc fragment
The assay can be described thus: bead ELISA, 1250 ng IgG, S/N over biotin-human Fc. For orientation: In an ELISA, binding on a coated surface is turned into a signal by an enzyme label.
As for B1, the binding result is given as “binds”.

With B2, the binding result is “binds”.

B3: the binding result is listed as “binds”.

Consider B4, for which the binding result was “binds”.

Regarding B5, the binding result is recorded as “binds”.

With B6, the binding result is on record as “binds”.

B7: the binding result is given as “binds”.

Consider B8, for which the binding result was “binds”.

Consider B9, for which the binding result is recorded as “binds”.

For the molecule B10, the binding result is “binds”.

B11: the binding result was “binds”.

Consider B12, for which the binding result was “binds”.

As to B13, the binding result is reported as “binds”.

B14: the binding result is listed as “binds”.

Turning to B15, the binding result is reported as “binds”.

With B16, the binding result was “binds”.

Regarding B17, the binding result is “binds”.

For the molecule B18, the binding result is reported as “binds”.

B19: the binding result is on record as “binds”.

In a further assay the target is T2, human CD137-Fc (human, biotin-labeled).
T2 construct: if 90 already holds the Fc, drop the second piece; also called biotin-labeled human CD137 fused to human IgG1 Fc fragment; biotin-human CD137-Fc; not shown: human IgG1 Fc fragment
The assay can be described thus: bead ELISA on biotin-human CD137-Fc, 0 pmol free CD3e peptide.
Turning to B20, the ELISA signal stood at 86200.

Consider B21, for which the ELISA signal came to 19100.

Molecule B22 had an ELISA signal of 9440.

B23 yielded an ELISA signal of 4800.

In the case of B24, the ELISA signal amounted to 7190.

The target in another assay is T2, human CD137-Fc. The experiment in a line: bead ELISA on biotin-human CD137-Fc, 125 vs 0 pmol free CD3e peptide.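 Further: target captured on streptavidin-coated magnetic beads, signal read as fluorescence 2 min after adding APS-5 substrate.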
In the case of B20, the Signal decrease was found to be 97%.

B21: the Signal decrease stood at 87.3%.

In turn, B22 showed a Signal decrease of 79.6%.

B23 had a Signal decrease of 60.8%.

As to B24, the Signal decrease amounted to 55%.

For the next assay, the target named is T3, Human CD137 ECD (human).
T3 construct: also called human CD137 extracellular domain; hCD137
The assay can be described thus: SPR (Biacore), affinity of single-mutation variant against parental H183/L072.
As to B25, the “fold change of affinity for CD137” value is 0 fold.

Turning to B26, the “fold change of affinity for CD137” value came to 0.6 fold.

Regarding B27, the “fold change of affinity for CD137” value is 0 fold.

Turning to B28, the “fold change of affinity for CD137” value was 0 fold.

B29: the “fold change of affinity for CD137” value was found to be 0 fold.

In the case of B30, the “fold change of affinity for CD137” value came out at 0.3 fold.

Another assay addresses T2, human CD137-Fc. The assay can be described thus: bead ELISA on biotin-human CD137-Fc with 125 pmol/well free CD3e peptide as competitor.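 Further: Streptavidin-coated magnetic beads in blocking buffer as the capture surface, well signal read as fluorescence 2 min after adding APS-5 substrate.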
The molecule B20 had an ELISA signal of 2620.

For the molecule B21, the ELISA signal worked out at 2420.

Regarding B22, the ELISA signal was determined as 1920.

B23 yielded an ELISA signal of 1880.

B24: the ELISA signal came to 3240.
